Test results reported in US20240400698A1, “ANTI-CHEMOKIN LIKE RECEPTOR 1 ANTIBODIES AND THEIR THERAPEUTIC APPLICATIONS” (OSE IMMUNOTHERAPEUTICS, priority 2018, published 2024).

Assays:
[1] = test system: NOD female mice, spontaneous type 1 diabetes; assay: Type 1 diabetes NOD model; assay type: in vivo; conditions: 20 μg/injection i.p. three times a week for 2 weeks
From the text: FIG. 5. […] Mice develop spontaneous diabetes. […] A. Percentage of survival, B. individual representation of blood glucose concentration in mg/dL. C. pooled representation of blood glucose concentration in mg/dL.
8 weeks-old NOD female mice were obtained from Charles River laboratory. These mice develop a spontaneous type 1 diabetes at age between 12 to 20 weeks. The diabetes initiation can be measured by the high glycaemia.

[2] = test system: 4T1 cells; assay: Orthotopic 4T1 mammary carcinoma model, primary tumor and metastasis; assay type: in vivo, mice
Method: FIG. 8. […] Mice were inoculated with 4T1 cells (0.25 millions) in the mammary gland. […] A. The tumor area was measured 8 days after tumor injection and then every 2 days. B. Tumor lung metastasis was measured by Bioluminescence imaging (BLI) in animals treated with isotype control and anti-CMKLR1 antibody (n=4).
Mice were anesthetized with 3% of isoflurane. Mice were shaved on the abdomen and 4T1 cells (0.25 millions) were injected in the mammary gland with an insulinic syringe (30 Gauges) in 50 μL of PBS. […] In a second study to measure the lung metastasis following mammary carcinoma development, animals were treated with anti-CMKLR1 antibody at 0.8 mg/kg or control antibody (100 μg/injection) three times a week for three weeks.

[3] = test system: Akt and Erk proteins (CMKLR1 pathway); assay: Western blot of Akt and Erk phosphorylation in mice M1 macrophages; assay type: cell-based; conditions: FIG. 18; mice M1, 2 μg/mL, after 10 to 30 minutes of incubation
Method: FIG. 18. Study of the CMKLR1 pathway activation: Akt and Erk phosphorylation. Western blot analysis of the ERK and AKT activation pathway after 5, 10 and 30 minutes of mice M1 cell incubation with 2G1 or RvE1. The Phosphorylated protein Akt or Erk were assessed using P-Akt antibody or P-Erk antibody (p44/42). A. Erk and Akt activation with RvE1. B. Erk and Akt activation with 2G1.
Mice pro-inflammatory macrophages (M1) were generated from bone marrow with M-CSF and polarized with IFN-gamma (IFNg) and LPS. Briefly, bone marrow cells were collected by flushing the femoral bone and cultured with 100 ng/mL of mM-CSF for 5 days and then polarized with 20 ng/ml of IFNg and 100 ng/mL of LPS for 24 h. Then, they were deprived of FBS for 24 hours with RPMI FBS 2% medium. Finally, mice M1 were treated with 2 μg/mL of 2G1 antibody at different times: 5, 10 and 30 minutes. Cells were collected in a RIPA buffer. The protein concentration was measured by a BCA protein kit assay. Proteins were denatured by heating at 95° C. for 5 minutes and diluted in DTT and Laemmli solution. After migration and transfer, the nitrocellulose membrane was blocked with 5% BSA in TBS-T for 2 hours. […] Western blot Images were quantified by Multi Gauge software

[4] = biological target: T1, CMKLR1 receptor (Homo sapiens, UniProt Q99788); assay: Competition assay of Chemerin-dependent β-arrestin recruitment by CMKLR1 receptor, CHO-K1 CMKLR1 cells; assay type: cell-based; conditions: FIG. 20B; antibody 1 μM to 1 nM, Chemerin 2 or 6 nM
T1 construct: host or cells: CHO-K1
T1 sequence (Q99788 1-373): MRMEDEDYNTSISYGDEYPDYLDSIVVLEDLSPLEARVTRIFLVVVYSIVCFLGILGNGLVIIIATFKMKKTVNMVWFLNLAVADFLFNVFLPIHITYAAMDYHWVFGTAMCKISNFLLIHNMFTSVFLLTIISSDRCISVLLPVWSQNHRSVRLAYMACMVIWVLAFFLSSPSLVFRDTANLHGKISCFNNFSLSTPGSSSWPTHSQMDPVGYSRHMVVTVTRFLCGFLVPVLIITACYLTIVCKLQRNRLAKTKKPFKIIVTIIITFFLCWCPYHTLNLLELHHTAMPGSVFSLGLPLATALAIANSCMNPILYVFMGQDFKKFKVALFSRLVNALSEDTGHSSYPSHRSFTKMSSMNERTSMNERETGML
Method: The day before the assay, CHO-K1 CMKLR1 cells (Discover'X ref 93-0313E2) were plated in pre-warmed cell reagent then plated in a 96-well plate at 100 μl/well of cells as (Discover'X ref 15-103) and incubated […] at 37° C., in a 5% CO2 humidified incubator. The anti-CMLKR1 antibody was diluted (22× in 7-point series of 3-fold dilutions from 1 μM to 1 nM) and cells were incubated 30 min at 37° C. with the antibody. […] The luminescence was measured after Working Detection Solution addition to the cells with a plate reader with 0.5 s integration.

[5] = test system: Rag1 knock-out mice, CD45Rb high CD4 T cell transfer colitis; assay: CD45Rb high T-cell transfer chronic colitis mouse model; assay type: in vivo; conditions: FIG. 21; 1 mg/kg three times a week for 3 weeks from day 32; control mice start to lose weight
Method: Weight variation of treated animals was followed up to sixty days. Animals were treated with isotype control hIgG1 (x) or anti-CMKLR1 antibody (=).
Method: CD45Rb^high CD4 T cells were isolated from the spleen of naive mice and sorted on an ARIA FACS after a negative selection of the CD4 T cells by magnetic sorting, then injected intraperitoneally at 0.5·10^6 cells in 100 μL of PBS into 6-weeks old female Rag1 knock-out mice. Anti-CMKLR1 antibody (2G1) or an isotype control were administered from day 32 after the CD45Rb^high CD4 T cell transfer for 3 weeks three times a week at 1 mg/kg. The follow-up of weight was evaluated three times a week and the weight variation was determined over the initial weight. * p<0.05, ** p<0.01.

B1: 2G1: chimeric anti-CMKLR1 antibody, murine variable regions (SEQ ID No: 10 and 17), human IgG1 constant regions; VH-CDR3 variant LI (antibody, V domains shown)
VH: METDTLLLWVLLLWVPGSTGDEVQLVASGGGLVQPGGSLKLSCAASGFTFSSYGMSWVRQTPDRRLELVATINRYGGSTYYPDSVKGRFTISRDNAKNTLYLQMSSLKSEDTAMYYCPRLIYYGNEGDSWGQGTTLTVSS
VL: METDTLLLWVLLLWVPGSTGDQIVLTQSPAIMSASPGEKVTMTCSASSSVSFMHWYQQKSGTSPKRWIYDTTKLTSGVPARFSGSGSGTFYSLTISSMEAEDAATYYCQQWNSKPPLTFGPGTKLELKR
modifications: human IgG1 constant regions
notes: VH-CDR3 variant LI
survival percentage ([1]; FIG. 5A): better survival percentage | glycaemia (blood glucose concentration) ([1]; FIG. 5B-C): almost normal glycaemia | tumor growth (tumor area) ([2]; 4T1 mammary carcinoma, FIG. 8A, 10 μg/injection at day 4 and day 7, vs isotype control): did not show any improvement in the tumor growth | lung metastasis by bioluminescence imaging ([2]; 4T1 model, FIG. 8B, 0.8 mg/kg three times a week for three weeks, vs control antibody): reduces the lung metastasis | lymph node metastasis ([2]; 4T1 model, data not shown, two animals in the control have metastasis): no animals treated with the anti-CMKLR1 compound has metastasis | activation (phosphorylation) of Akt protein [3]: able to induce the activation | activation (phosphorylation) of Erk protein [3]: able to induce the activation | effect on chemerin-dependent activation of the beta-arrestin [4]: did not significantly modify chemerin-dependent activation of the beta-arrestin | weight variation [5]: continue to gain weight
